This is an account of results in US20260209386A1 (MYTHIC THERAPEUTICS, published 2026).

In the assay the target is T1, Human PTK7 Protein, His Tag (Acro Biosystems) (human, UniProt Q13308 31-704).
T1 construct: Bought His-tagged recombinant human PTK7; also called CCK4; Tyrosine-protein kinase-like 7
T1 sequence: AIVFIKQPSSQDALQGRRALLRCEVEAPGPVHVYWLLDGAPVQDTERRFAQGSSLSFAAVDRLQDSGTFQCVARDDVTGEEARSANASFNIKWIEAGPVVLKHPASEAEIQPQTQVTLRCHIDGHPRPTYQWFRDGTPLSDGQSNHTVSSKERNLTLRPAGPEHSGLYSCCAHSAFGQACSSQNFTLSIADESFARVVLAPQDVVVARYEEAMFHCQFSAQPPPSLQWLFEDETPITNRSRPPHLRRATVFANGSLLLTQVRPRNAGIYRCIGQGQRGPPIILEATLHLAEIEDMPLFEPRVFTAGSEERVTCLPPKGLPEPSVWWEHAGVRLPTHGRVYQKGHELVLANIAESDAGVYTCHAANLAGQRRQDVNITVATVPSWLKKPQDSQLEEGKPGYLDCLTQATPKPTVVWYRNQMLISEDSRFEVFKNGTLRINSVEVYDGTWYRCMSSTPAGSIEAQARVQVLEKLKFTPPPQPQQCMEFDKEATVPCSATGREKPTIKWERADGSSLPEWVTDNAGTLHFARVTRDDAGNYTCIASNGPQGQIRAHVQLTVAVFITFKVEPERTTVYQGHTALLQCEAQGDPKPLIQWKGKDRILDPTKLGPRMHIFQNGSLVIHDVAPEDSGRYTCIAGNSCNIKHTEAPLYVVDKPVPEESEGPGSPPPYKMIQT
The assay is described as follows: BLI (Octet), antibody on anti-human Fc sensor, 50 nM PTK7; 2 = substantially similar binding.

B1: MYT10956 (antibody, V domains shown)
VH: EVQLVESGGGLVQPGGSLRLSCTASGFSLSHYAMGWVRQAPGKGLEWVGFINAGGNTYYANWAKGRFTISRDTSKNTVYLQMNSLRAEDTAVYFCARRYSRASGWYDLWGQGTLVTVSS
VL: EIVMTQSPSTLSASVGDRVIITCQASQSISSYLAWYQQKPGKAPKLLIYAASTLASGVPSRFSGSGSGAEFTLTISSLQPDDFATYYCQSYSYSSGIDYGDVFGQGTKLTVL
notes: MYT9359 HC variant; captured on anti-human Fc sensor
In the case of B1, the binding result is given as “binds”.

B2: MYT10975 (antibody, V domains shown)
VH: EVQLVESGGGLVQPGGSLRLSCTASGFSLSSYAMGWVRQAPGKGLEWVGFINAGGNTYYANWAHGRFTISRDTSKNTVYLQMNSLRAEDTAVYFCARRYSRASGWYDLWGQGTLVTVSS
VL: EIVMTQSPSTLSASVGDRVIITCQASQSISSYLAWYQQKPGKAPKLLIYAASTLASGVPSRFSGSGSGAEFTLTISSLQPDDFATYYCQSYSYSSGIDYGDVFGQGTKLTVL
notes: as for B1
As for B2, the binding result is recorded as “binds”.

B3: MYT10994 (antibody, V domains shown)
VH: EVQLVESGGGLVQPGGSLRLSCTASGFSLSSYAMGWVRQAPGKGLEWVGFINAGGNTYYANWAKGRFTISRDTSKNTVYLQMNSLRAEDTAVYFCARRYSRASGWYDLWGQGTLVTVSS
VL: EIVMTQSPSTLSASVGDRVIITCQAHQSISSYLAWYQQKPGKAPKLLIYAASTLASGVPSRFSGSGSGAEFTLTISSLQPDDFATYYCQSYSYSSGIDYGDVFGQGTKLTVL
notes: MYT9359 LC variant; captured on anti-human Fc sensor
On to B3, for which the binding result is on record as “binds”.

B4: MYT11007 (antibody, V domains shown)
VH: EVQLVESGGGLVQPGGSLRLSCTASGFSLSSYAMGWVRQAPGKGLEWVGFINAGGNTYYANWAKGRFTISRDTSKNTVYLQMNSLRAEDTAVYFCARRYSRASGWYDLWGQGTLVTVSS
VL: EIVMTQSPSTLSASVGDRVIITCQASQSISSYLAWYQQKPGKAPKLLIYAASTHASGVPSRFSGSGSGAEFTLTISSLQPDDFATYYCQSYSYSSGIDYGDVFGQGTKLTVL
notes: as for B3
In the case of B4, the binding result is reported as “binds”.

B5: MYT10968 (antibody, V domains shown)
VH: EVQLVESGGGLVQPGGSLRLSCTASGFSLSSYAMGWVRQAPGKGLEWVGFINAGGNHYYANWAKGRFTISRDTSKNTVYLQMNSLRAEDTAVYFCARRYSRASGWYDLWGQGTLVTVSS
VL: EIVMTQSPSTLSASVGDRVIITCQASQSISSYLAWYQQKPGKAPKLLIYAASTLASGVPSRFSGSGSGAEFTLTISSLQPDDFATYYCQSYSYSSGIDYGDVFGQGTKLTVL
notes: as for B1
As for B5, the binding result is recorded as “binds”.

B6: MYT10977 (antibody, V domains shown)
VH: EVQLVESGGGLVQPGGSLRLSCTASGFSLSSYAMGWVRQAPGKGLEWVGFINAGGNTYYANWAKGRFTISRDTSKNTVYLQMNSLRAEDTAVYFCHRRYSRASGWYDLWGQGTLVTVSS
VL: EIVMTQSPSTLSASVGDRVIITCQASQSISSYLAWYQQKPGKAPKLLIYAASTLASGVPSRFSGSGSGAEFTLTISSLQPDDFATYYCQSYSYSSGIDYGDVFGQGTKLTVL
notes: as for B1
As to B6, the binding result is given as “binds”.

B7: MYT10996 (antibody, V domains shown)
VH: EVQLVESGGGLVQPGGSLRLSCTASGFSLSSYAMGWVRQAPGKGLEWVGFINAGGNTYYANWAKGRFTISRDTSKNTVYLQMNSLRAEDTAVYFCARRYSRASGWYDLWGQGTLVTVSS
VL: EIVMTQSPSTLSASVGDRVIITCQASQHISSYLAWYQQKPGKAPKLLIYAASTLASGVPSRFSGSGSGAEFTLTISSLQPDDFATYYCQSYSYSSGIDYGDVFGQGTKLTVL
notes: as for B3
Consider B7, for which the binding result is “binds”.

B8: MYT11009 (antibody, V domains shown)
VH: EVQLVESGGGLVQPGGSLRLSCTASGFSLSSYAMGWVRQAPGKGLEWVGFINAGGNTYYANWAKGRFTISRDTSKNTVYLQMNSLRAEDTAVYFCARRYSRASGWYDLWGQGTLVTVSS
VL: EIVMTQSPSTLSASVGDRVIITCQASQSISSYLAWYQQKPGKAPKLLIYAASTLAHGVPSRFSGSGSGAEFTLTISSLQPDDFATYYCQSYSYSSGIDYGDVFGQGTKLTVL
notes: as for B3
As for B8, the binding result is “binds”.

B9: MYT10965 (antibody, V domains shown)
VH: EVQLVESGGGLVQPGGSLRLSCTASGFSLSSYAMGWVRQAPGKGLEWVGFINAHGNTYYANWAKGRFTISRDTSKNTVYLQMNSLRAEDTAVYFCARRYSRASGWYDLWGQGTLVTVSS
VL: EIVMTQSPSTLSASVGDRVIITCQASQSISSYLAWYQQKPGKAPKLLIYAASTLASGVPSRFSGSGSGAEFTLTISSLQPDDFATYYCQSYSYSSGIDYGDVFGQGTKLTVL
notes: as for B1
Take B9: the binding result is listed as “binds”.

B10: MYT10972 (antibody, V domains shown)
VH: EVQLVESGGGLVQPGGSLRLSCTASGFSLSSYAMGWVRQAPGKGLEWVGFINAGGNTYYAHWAKGRFTISRDTSKNTVYLQMNSLRAEDTAVYFCARRYSRASGWYDLWGQGTLVTVSS
VL: EIVMTQSPSTLSASVGDRVIITCQASQSISSYLAWYQQKPGKAPKLLIYAASTLASGVPSRFSGSGSGAEFTLTISSLQPDDFATYYCQSYSYSSGIDYGDVFGQGTKLTVL
notes: as for B1
Take B10: the binding result is “binds”.

B11: MYT10992 (antibody, V domains shown)
VH: EVQLVESGGGLVQPGGSLRLSCTASGFSLSSYAMGWVRQAPGKGLEWVGFINAGGNTYYANWAKGRFTISRDTSKNTVYLQMNSLRAEDTAVYFCARRYSRASGWYDLWGQGTLVTVSS
VL: EIVMTQSPSTLSASVGDRVIITCHASQSISSYLAWYQQKPGKAPKLLIYAASTLASGVPSRFSGSGSGAEFTLTISSLQPDDFATYYCQSYSYSSGIDYGDVFGQGTKLTVL
notes: as for B3
With B11, the binding result is “binds”.

B12: MYT11008 (antibody, V domains shown)
VH: EVQLVESGGGLVQPGGSLRLSCTASGFSLSSYAMGWVRQAPGKGLEWVGFINAGGNTYYANWAKGRFTISRDTSKNTVYLQMNSLRAEDTAVYFCARRYSRASGWYDLWGQGTLVTVSS
VL: EIVMTQSPSTLSASVGDRVIITCQASQSISSYLAWYQQKPGKAPKLLIYAASTLHSGVPSRFSGSGSGAEFTLTISSLQPDDFATYYCQSYSYSSGIDYGDVFGQGTKLTVL
notes: as for B3
Consider B12, for which the binding result was “binds”.

B13: MYT10973 (antibody, V domains shown)
VH: EVQLVESGGGLVQPGGSLRLSCTASGFSLSSYAMGWVRQAPGKGLEWVGFINAGGNTYYANHAKGRFTISRDTSKNTVYLQMNSLRAEDTAVYFCARRYSRASGWYDLWGQGTLVTVSS
VL: EIVMTQSPSTLSASVGDRVIITCQASQSISSYLAWYQQKPGKAPKLLIYAASTLASGVPSRFSGSGSGAEFTLTISSLQPDDFATYYCQSYSYSSGIDYGDVFGQGTKLTVL
notes: as for B1
As for B13, the binding result was “binds”.

B14: MYT10971 (antibody, V domains shown)
VH: EVQLVESGGGLVQPGGSLRLSCTASGFSLSSYAMGWVRQAPGKGLEWVGFINAGGNTYYHNWAKGRFTISRDTSKNTVYLQMNSLRAEDTAVYFCARRYSRASGWYDLWGQGTLVTVSS
VL: EIVMTQSPSTLSASVGDRVIITCQASQSISSYLAWYQQKPGKAPKLLIYAASTLASGVPSRFSGSGSGAEFTLTISSLQPDDFATYYCQSYSYSSGIDYGDVFGQGTKLTVL
notes: as for B1
As for B14, the binding result is “binds”.

B15: MYT10976 (antibody, V domains shown)
VH: EVQLVESGGGLVQPGGSLRLSCTASGFSLSSYAMGWVRQAPGKGLEWVGFINAGGNTYYANWAKHRFTISRDTSKNTVYLQMNSLRAEDTAVYFCARRYSRASGWYDLWGQGTLVTVSS
VL: EIVMTQSPSTLSASVGDRVIITCQASQSISSYLAWYQQKPGKAPKLLIYAASTLASGVPSRFSGSGSGAEFTLTISSLQPDDFATYYCQSYSYSSGIDYGDVFGQGTKLTVL
notes: as for B1
Take B15: the binding result was “binds”.

B16: MYT10995 (antibody, V domains shown)
VH: EVQLVESGGGLVQPGGSLRLSCTASGFSLSSYAMGWVRQAPGKGLEWVGFINAGGNTYYANWAKGRFTISRDTSKNTVYLQMNSLRAEDTAVYFCARRYSRASGWYDLWGQGTLVTVSS
VL: EIVMTQSPSTLSASVGDRVIITCQASHSISSYLAWYQQKPGKAPKLLIYAASTLASGVPSRFSGSGSGAEFTLTISSLQPDDFATYYCQSYSYSSGIDYGDVFGQGTKLTVL
notes: as for B3
On to B16, for which the binding result is listed as “binds”.

B17: MYT10987 (antibody, V domains shown)
VH: EVQLVESGGGLVQPGGSLRLSCTASGFSLSSYAMGWVRQAPGKGLEWVGFINAGGNTYYANWAKGRFTISRDTSKNTVYLQMNSLRAEDTAVYFCARRYSRASGWHDLWGQGTLVTVSS
VL: EIVMTQSPSTLSASVGDRVIITCQASQSISSYLAWYQQKPGKAPKLLIYAASTLASGVPSRFSGSGSGAEFTLTISSLQPDDFATYYCQSYSYSSGIDYGDVFGQGTKLTVL
notes: as for B1
Take B17: the binding result is “binds”.

B18: MYT10967 (antibody, V domains shown)
VH: EVQLVESGGGLVQPGGSLRLSCTASGFSLSSYAMGWVRQAPGKGLEWVGFINAGGHTYYANWAKGRFTISRDTSKNTVYLQMNSLRAEDTAVYFCARRYSRASGWYDLWGQGTLVTVSS
VL: EIVMTQSPSTLSASVGDRVIITCQASQSISSYLAWYQQKPGKAPKLLIYAASTLASGVPSRFSGSGSGAEFTLTISSLQPDDFATYYCQSYSYSSGIDYGDVFGQGTKLTVL
notes: as for B1
In the case of B18, the binding result was “binds”.
